The record followed here is patent US20170233449A1.

The assay concerns the target type I interferon receptor (IFNAR1 and IFNAR2) on cells (human) (UniProt P17181). The assay is described as follows: cell-based or functional assay.

Chain of type I interferon receptor (IFNAR1 and IFNAR2) on cells (human) (P17181 28-557, chain 1 of 2): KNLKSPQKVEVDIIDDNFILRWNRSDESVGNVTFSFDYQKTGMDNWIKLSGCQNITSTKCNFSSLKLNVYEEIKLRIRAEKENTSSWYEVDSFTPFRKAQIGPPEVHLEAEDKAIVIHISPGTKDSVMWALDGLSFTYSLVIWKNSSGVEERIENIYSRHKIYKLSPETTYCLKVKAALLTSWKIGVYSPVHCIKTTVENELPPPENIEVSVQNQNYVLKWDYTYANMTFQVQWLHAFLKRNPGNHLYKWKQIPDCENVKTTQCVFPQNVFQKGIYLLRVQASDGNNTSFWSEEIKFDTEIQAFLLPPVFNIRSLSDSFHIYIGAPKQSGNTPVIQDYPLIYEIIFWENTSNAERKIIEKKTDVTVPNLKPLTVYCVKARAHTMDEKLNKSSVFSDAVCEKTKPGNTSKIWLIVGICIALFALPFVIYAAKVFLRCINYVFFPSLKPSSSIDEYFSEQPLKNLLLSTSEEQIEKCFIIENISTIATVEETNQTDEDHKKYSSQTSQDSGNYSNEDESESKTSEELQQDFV
Chain of type I interferon receptor (IFNAR1 and IFNAR2) on cells (human) (P48551 27-515, chain 2 of 2, further chain): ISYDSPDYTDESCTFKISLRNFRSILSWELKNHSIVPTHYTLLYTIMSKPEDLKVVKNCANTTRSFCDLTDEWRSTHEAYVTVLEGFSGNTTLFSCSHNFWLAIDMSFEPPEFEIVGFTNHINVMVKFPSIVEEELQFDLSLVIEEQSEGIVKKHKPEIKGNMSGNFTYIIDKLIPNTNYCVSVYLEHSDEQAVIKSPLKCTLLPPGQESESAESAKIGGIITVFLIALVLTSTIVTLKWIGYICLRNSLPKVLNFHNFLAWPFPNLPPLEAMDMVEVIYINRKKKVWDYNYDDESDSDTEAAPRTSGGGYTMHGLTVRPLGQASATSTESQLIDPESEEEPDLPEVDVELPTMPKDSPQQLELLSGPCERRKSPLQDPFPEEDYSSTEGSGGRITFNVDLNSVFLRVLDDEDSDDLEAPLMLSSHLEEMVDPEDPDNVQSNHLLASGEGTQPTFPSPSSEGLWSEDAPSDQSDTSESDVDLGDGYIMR

Consider “human interferon-β1 (IFNβ), free wild type (from UniProt P01574 22-187) (ligand)”, for which the EC50 Off Target (pM) iLite came out at 0.799 pM and the EC50 On Target (PM) ARP-1 was determined as 0.0105 nM.
